Assay: yeast display, Sf9 membrane polyspecificity reagent, FACS + sequencing; frameworks hold sequencing errors
Method in brief: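 Synthetic nanobody libraries on Saccharomyces cerevisiae BJ5465 were galactose-induced for 36–48 hours, stained 1 hour at 4 °C with 10% biotinylated, detergent-solubilized Sf9 membrane reagent and enriched on streptavidin microbeads. FACS then separated cells into low and high (top ~1%) gates by anti-HA (expression) and streptavidin (reagent binding) fluorescence. Genes were colony-PCR amplified, MiSeq 2 × 250 sequenced and CDR-length filtered. A clone's polyreactivity label is that of its gate of origin.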

| Sequence | polyreactivity (PSR sort gate) |
| --- | --- |
| QVQLVESGGGLVQAGGSLRLSCAASGLIFSRYAMGWYRQAPGKEREFVAAINWNGGRTYYADSVKGRFTISRDNAKNTVYLQMNSLKPEDTAVYYCAATWIDYYVIYAYDYWGQGTQVTVSS | high polyreactivity |
| QVQLQESGGGLMQAGGSQRLSCAASGSISYYSDMGWYRQAPGKEREFVAGIGYGTTTNYADSVKGRFTTSRDNAKNTVYLQMISMKPEDSAVYYCAAYQGNGYEFYYWGQGTQVTVRS | low polyreactivity |
| QVQLVESGGLLVQAGGSLRLTCAASGSTFGRNAMGWYRQATGKERQLVAAITASGGTTYYADSVKGRFTISRDNAKNTVYLHMNSLKPEDTAVYDCARAGHFSFKYDYWGQGTQVTVSS | low polyreactivity |
| QVQLVESGGGLVQAGGSLRLSCAASGITFRVNAMGWYRQAPGKERELVAAISQIGGSTYYADSVKGRFTISRDNAKNTVYLQMNSLKPEDTAVYYCAARRRWYNYNYWGQGTQVTVSS | high polyreactivity |
| QVQLVESGGGLVQAGVSLRLSCVASGLTQPYAMGWYRQAPGKESELVAGISWRGASTYYADSVKGRFTISRDNAKNTVYLQMNSLKPEDTAVSYCAARSTIQRRGYYGYRVGRSEYGYWGQGTQVTVSS | low polyreactivity |
| QVQLVESGGGIVQAGGSLRLSCAASGSILYFNAMGWYRQAPGKERELVAAISRTGSRTYYADSVKGRFTISRDNAKNTVYLQMNSLKPEDTAVYYCAAYNGITSHLRFDYWGQGTQVTVSS | high polyreactivity |
| QVQLVESGGGLVQAGGSLRLSCAASGSIFGYNTMGWSRQAPGKERELVASISYSGGSTYYADSVKGRFTISRDNAKNTVYLQMNSLKPEDTAVYYCNTGSRYRPNRRYGYWGQGTQVTVSS | high polyreactivity |
| QVQHVDSGGRLVQAGGRLRLSCAASGRIITYYARGWNRQAPGKERELVAAISGRGGGTYYADSVKGRFTISRDNAKNTVYLQMNSLKPADTAVYYCNAYYSRLRYDYWGQGTQVTVSS | high polyreactivity |
| QVQLVESGGGLVQAGGSLRLSCAASGFIFEPYAMGWYRQEPGKERELVAAISNSDSTNYADSVKGLFTISRDNAKNTVYLQMNSLKAEDTAVYYCNADFSKSYDYWGQGTQVTVSS | low polyreactivity |
| QVQLVESGGGKVQAGGSLRLSCAASGYTFKYYTMGWYRQAPGKERELLAAITRSGGSTYYADSVKGRFTISRDTAKNTVYLQMNSLKPEDTAFYYCAARASYKQPVSFDYWGQGTQVTVSS | high polyreactivity |
| QVQLVESGGGLVQAGGSLRLSCAASGYTFQWYDMGWYRQAPGKERELVASISWRGGSTYYADSVKGRFTISRDNAKNTVYLQMNSLKPEDTAVYYCAASLWPDYEYDYWGQGTQVTVSS | low polyreactivity |
| QVQLVESGGGLVQAGGSLRLSCAASGRIFRYYTMGWYRQAPGKERELVAAITWSGGSTYYADSVKGRFTISRDNAKNTVYLQMNSLKPEDTAVYYCAVVYSPSMDYWGQGTQVTVSS | high polyreactivity |
| QVQLVESGGGLVQAGGSLRLSCAASGIIFDTYAMGWYRPAPGKEREFVARISYSGGTTYYADSVKGRFTSSRDNAKNTVYLQMNSLKPEDTAVYYCATVSRRFYRWSSRYDYWGQGTQVTVSS | high polyreactivity |
| QVQLVESGGGLVQAGGSLRLSCAASGFTFYAYTMGWYRQAPGKERELVAAIRTGSSTYYADSVKGRFTISRDNAKITVYLQMNSLKPEDTAVYYCDAPRWRRPYRYDYWGQGTQVTVSS | high polyreactivity |
| QVQLVEAGGGLVQAGGSLRLSCATSGGIFPPNAMGWYRQAPGKERELVASISSDGSTNYADSVKGRFTISRDNAKNTFYLQMISLKPEDTAVYFCAADSTTTWARLHVRRYYYWGQGTQVTVSS | low polyreactivity |
| QVQLVESGGGLVQAGGSLRLSCAASGSTFGNNAMGWYRPAPGKERELVAGIRRSSNTYYADSVKGRFTISRDNAKNTVYLQMNSLKPEDTAVYCCNADNILYGSTLDYWGQGTQVTVSS | low polyreactivity |
| QVQLVESGGGLVQAGGSLRLSCAASGFIFSRNAMGWYRQAPGKERELVAAISLRGGSTYYADSVKGRFTISRDNAKNTVYLQMNSLKPEDTAVYYCAADSVLTPYDYWVQGTQVTVSS | low polyreactivity |
| QVQLVESGGGLVQAGGSLRLSCAAYGSTLNRNVMGWYRQAPGKERELVAVITYGVGSTYYADSVKGRFTISRDNAKNTVYLQMNSLKPEDTAVYYCNKDPLVFDYWGQGTQVTVSS | low polyreactivity |
| QVQLVESGGALVQAGGSLRLSCAASGIIFYSYAMGWYRQAPGKERELVAAISNNGGSTYADSVKGRFTISRDNAKNSVYLQMKSVKPEDTAVYYCAADPTGGVGFDGYYWGQGTQVTVSS | low polyreactivity |
| QVQLVESGGGLVQAGGSLRLSCAASGSIFAHYAMGWYRQAPGKERELVAAISWGGGRTYYADSVKGRFTISRDNAKNTVYLQMNSLKPEDTAVYYCAARAANKSNYWGQGTQVTVSS | low polyreactivity |
| QVQLVESGGGLVQAGASLRLSCAASGSIFADYAMGWYRQAPGKERELVAAISYNGDSTYYADSVKGRFTISRDNAKNTVYLQMNSLKPEDTGVYYCATEDNYWYVTGDLYHTAFYYWGQGTQVTVSS | low polyreactivity |

| Sequence | polyreactivity (PSR sort gate) |
| --- | --- |
| QVQLVESGGGLVQAGGSLRLSCAASGRISGVNAMGWYRQAPGKERELVATISGSGGRTYYADSVKGRFTISRDNAKNTVYLQMNSLKPEDTAVYYCNTLVQRGGYFSLRFDYWGQGTQVTVSS | low polyreactivity |
| QVQLVESGGGLVQAGGSLRLTCAASGFTFSYYTMGRYRQAPGKERELVAAISSGGSTYYADSVKGRFTISRDNAKNSVYLQMNSLKPEDTAVYYCNAYYGSYSPANGEYWGQGTQVTVSS | high polyreactivity |
| QVQLVESGGGLVQAGGSLRLSCAASGRIFPYNAMGWYRQAPGKERELVASIRTGGGRTRYADSVKGRFTISRDNAKNTVYLQMNSLKPEDTAVYYCNADSSPRWYHYPTRYDYWGQGTQVTVSS | low polyreactivity |
| QVQLVESGGGLVQAGCSLRLSCAASGRTFYYAMGWYRQAPGKERYADSVKGRFTISRDNAKNTVYLQMNSLKPEDTAVYYCAAKVPEPTSLDQSDYWGQGTQVTVSS | low polyreactivity |
| QVQLVESGGGLVQAGGSLRLSCAASGSNFVLYAMGWYRQAPGKESELVAAISSSGGSTYADSVKGRFTISRDNAKNTVYLQMNSLKPEDTAVYYCARDVYLSDPPRDYDYWGQGTQVTVSS | low polyreactivity |
| QVQLVESGGGLVQAGGSLRLSCAASGIIFPRYAMGWYRQAPGKEREVVAAITSGGSTYYADSVKGRFTISRDNAKNTVYLQINSLKPEDTAVSYCAAVRYSWDIYREYYYWGQGTQVTVSS | high polyreactivity |
| QVQLVESGGGLVQAGGSLRLSCAASGRTFSEYAMGWYRQAPGKERELVAAITRSGGGTYYADSVKGRFTISRDNAKNTVYLQMNSLKPEDTAVYYCATQSFSPYDYTDEYWGQGTQVTVSS | high polyreactivity |
| QVQLVESGGGLVQAGGSLRLSCAASGRIFHRNAMGWYRPAPGKERELVATIRGNGGSTYYADSVKGRFTISRDNAKNTVYLQMNSLKPEDTAVYYCARDAQGYGGWWTYSRFYSWGQGTQVTVSS | high polyreactivity |
| QVQLVESGGGLVQAGGSLRLSCAASGSIAMGWYRQAPGKERELVATISSSGGSTYYADSVKGRFTISRDNAKNTVYLQMNSLKPEDTAVYYCNTQAVYGGGEGGYDYWGQGTQVTVSS | low polyreactivity |
| QVQLVESGGGLVQAGGSLRLSCAASGSIFSYYTMGWYRQAPGKERELVAAISFRGTSTYYADSVKGRFTISRDNAKNTVYLQMNSLKPEDTAVYYCAKRALYYPTYPKYDTYNRYYWGQGTQVTVSS | high polyreactivity |
| QVQLVESGGGLVQAGGSLRLSCAASGFIYDKYVMGWSRQAPGKERQLVAAISSGGSTYYADSVKGRFTISRDNAKNTVYLQMNSLKPEDTAVYYCNAGGFWPWVYGYDSWGQGTQVTVSS | high polyreactivity |
| QVQLVESGGGLVQAGGSLRLSCAASGFIFKAYAMGWYRQAPGKERELVASITSGDSTNYADSVKGRFTISRDNAKNTVYLQMNSLKPEDTAVYYCNADGWRWHRRKWVYGYDYWGQGTQVTVSS | low polyreactivity |
| QVQLVESGGGLVQAGGSLRLSCAASGITFRYYVMGWYRQAPGKERELVAAISWSGGSTYYADSVKGRFTISRDNAKNTVYLQMNCLKPEDTAVYYCAAYKRRSNGRYWTYDYWGQGTQVTVSS | high polyreactivity |
| QVQLVESGGVLVQAGGSLRLSCAASGITFEYYAMGWYRQAPGKERELVAAISWSGSSTYYADSVKGRFTISRDNAKNTVYLQMNSLKPEDTAVYYCNADSAWWASDDQYDYWGQGTQVTVSS | low polyreactivity |
| QVQLVESGGGLVQAGGSLRLSCAASGFIFEYYAMGWYRQAPGKERELVAAISRGGRTNYADSVKGRFTISRDNAKNTVYLQMNSLKPEDTAVYYCARDYTFYRQVRKYGYWGQGTQVTVSS | high polyreactivity |
| QVQLVESVGGLVQAGGSLRLSCAASGLILRFYAMVWYRQAPGKERELVAAISRNGGSTYYADSVKGRFTISRDNAKNTVYLQMNSLKPEDTAVYYCAVEYYVSWKLDYWGQGTQVTVSS | high polyreactivity |
| QVLLVESGGGLVQAGGSLRLICDDSGFIFTYYAMGLYRQAPVTEREFVAAIRASGGSTYYSYSVKGRFTISRDKAQNTVYLQMNSLKPEETAVYYCAARYRQRLRSTSYDYWGQGTQVTVSS | high polyreactivity |
| QVQHVESGGGLVQAGGSLRLSCAASGRIFVPYVMGWYRQAPGKERELVASISDSDTSTYDADSVKGRFTISRDNAKTTVYLQMNSLKPEDTAVYYCNVDYWGKGTQVTVSS | low polyreactivity |
| QVQLVESGGGLVQAGGSLRISCAASGSTFKIYAMGWYRQAPGKERELVAAITGGGSSTYYADSVKGRFTISRDNSKNTVYLQMNSLKPEDTAVYYCAADLSGADSTGDYYYWGQGTQVTVSS | low polyreactivity |
| QVQLVESGGGLVQAGGSLRLSCAASGNIFDVYAMGWYRQAPGKERELVADIDRGGTTYADSVKGRFTISRDNAKNTVYLQMNSLKPVDTAVYYCAADYVQGFGFYYQWLYDYWGQGTQVTVSS | low polyreactivity |
